Experimental data reported in patent publication US20260297164A1, “ANTI-FIBROTIC PEPTIDES AND USES THEREOF” (Deackt, Inc., priority 2021, published 2026).

System: PI3K/Akt/mTOR signaling in lung fibroblasts
Assay: TGF-β1 stimulation of PI3K/Akt/mTOR signaling in lung fibroblasts
Assay type: cell-based, mouse
Conditions: TGF-β1 10 ng/ml, 24 h
Description: FIG. 3. CD148 deficiency enhances PI3K/Akt/mTOR signaling which results in low autophagy, high p62 expression in lung fibroblasts. (A) Mouse lung fibroblasts were isolated from Ptprj^fl/fl Col1a2^Cre-ER(T)+/0 mice (Ptprj−/−) and Col1a2^Cre-ER(T)+/0 mice (WT) and then treated with 4-OHT (1 μM) for 24 h. After 4-OHT treatment, cells were exposed to TGF-β1 (10 ng/ml) for 24 h. After stimulation, cells were harvested, and the expression of p-p85 (Tyr458), p-Akt (Ser473), pmTOR (Ser2448), p-p70 S6 kinase (Thr389), p-S6 ribosomal protein (Ser235/236) and CD148 (n=4 for each condition) in lysates was determined by Western immunoblotting and corresponding densitometry (ImageJ software). Data were normalized to corresponding dephospho-forms or GAPDH. (B) WT and Ptprj−/− cells were stimulated with TGF-β1 (10 ng/ml) for 24 h. Then cells were lysed and LC3-I and -II and p62 were measured by western blot (n=4). […] Then, autophagy flux was measured by LC3-II accumulation in the absence or presence of lysosomal acidification inhibitor chloroquine (25 μM) at 2, 4 and 6 h (n=4). […] LC3 puncta positive cells were quantified using ImageJ (D). […]
Polyacrylamide gel electrophoresis and immunoblotting were performed according to standard methods. […] The signals were detected by ECL (Thermo Fisher Scientific, Waltham, MA). […]

## TGF-β1
  phosphorylation of PI3K (p85 subunit), Akt, mTOR and mTOR-related signaling proteins (p70 S6-kinase and S6): upregulated
